In publication PMC4843787 (Biochimica et biophysica acta, 2015):
Substitutions are numbered along the chain they refer to. Names and notes keep the numbering of the source.

T1: MauG, bis-Fe(IV) redox state (UniProt Q51658 21-387)
T1 sequence (looked up): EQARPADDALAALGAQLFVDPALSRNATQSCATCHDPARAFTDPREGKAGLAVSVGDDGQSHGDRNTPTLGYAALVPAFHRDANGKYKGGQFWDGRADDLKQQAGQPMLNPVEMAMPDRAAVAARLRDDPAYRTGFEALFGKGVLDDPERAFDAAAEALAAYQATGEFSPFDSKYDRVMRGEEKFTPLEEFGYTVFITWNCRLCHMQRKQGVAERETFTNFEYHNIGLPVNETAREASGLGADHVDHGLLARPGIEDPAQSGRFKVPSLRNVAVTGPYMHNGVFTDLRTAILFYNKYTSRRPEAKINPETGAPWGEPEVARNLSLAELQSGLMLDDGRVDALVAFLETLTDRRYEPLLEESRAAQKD

B1: amicyanin from Paracoccus denitrificans, wild type, reduced Cu(I) form (natural protein, UniProt P22364 27-131, looked up)
chain: DKATIPSESPFAAAEVADGAIVVDIAKMKYETPELHVKVGDTVTWINREAMPHNVHFVAGVLGEAALKGPMMKKEQAYSLTFTEAGTYDYHCTPHPFMRGKVVVE
B2: P94A amicyanin, reduced Cu(I) form (natural protein, Paracoccus denitrificans, UniProt P22364 27-131, looked up)
chain: B1 chain with P94A

Biological target: T1, MauG, bis-Fe(IV) redox state
Experiment: stopped-flow single-turnover kinetics

Row | Binder | Kd [µM]
1 | B1 | 165 ± 50
2 | B2 | 240 ± 82
